Measurements published in the domain aggregation screens of Martell et al. (2025).

Assay: soluble fraction after stress (log2 fold change); higher = more stays soluble; pooled small domains, quantitative proteomics
Details: stress: pH 4
How it was run: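 Aggregation propensity is read out as the fold change in how much of each domain remains soluble after acid stress. The custom small-domain libraries were pooled, held at pH 4 and analysed with high-throughput quantitative proteomics. On the log2 scale used, higher values mean more of the domain stayed soluble.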
For “HMEPDEQAVKALIAEIDKLSKEKLTLKHEKKLKELREIYDDFTEEEKKLVTNYDILVKMEKRMEVLKKQEG”, the “soluble fraction (log2)” value was 0.19.
With “HMEPDEYTVRQAFMKFDVGGEGRVPRDKLKALLETLGLELSAQQVRESEEQLDPEGTGFTSYGDFLMWWN” the “soluble fraction (log2)” value was -1.33.
For “HMEPEVSNTYEKVLGMHHFSSTRSHQLHDLVRQANALELSLGEIESIAQSAKDGAQVISDIKHWMEPNRQ”, the “soluble fraction (log2)” value was -0.185.
For “HMEPEWVINTDGSNLNEILAIDEVDSRKTFSNDLQEVYRTFGIEAARQILVQEIDAVIESSGA”, the “soluble fraction (log2)” value was -0.675.
With “HMEPFEQLLDRITSQTGKEPEEVVARMNELITERFDGNIRPEAALVIVAKRDNIQFMDLLDQLKQALL” the “soluble fraction (log2)” value was -0.907.
For “HMEPIAFDNMHNRGIKGTNDWTQYEITLPFSAEAKKIFVAGLLVGKGKAWFDKFEVFLDGKNITDVAQI”, the “soluble fraction (log2)” value was -0.0075.
With “HMEPPPSYSALLKQISSGKVKELQLVPARREVIVTYPDGRSATVAILANDQQILRTAEAAGTPLLVK” the “soluble fraction (log2)” value was 0.326.
With “HMEPQLVKSFDVQTELTYDQFLSKYPESHTLGRLLVQPEPIPFEPYKNIPGITPEKLLALHAKHLEAR” the “soluble fraction (log2)” value was -0.169.
In the case of “HMEPQSRTAYRLIEAMIVTHELPPGSRISEASLSAKLGIGRTPIREALQRLSFEGTVKIVPRSGAFVSEI”, the “soluble fraction (log2)” value is reported as 0.183.
With “HMEPREALDGLISERGETYASISRLLGRNSAYIQQFIKRGSPARLDQSDIALLALHFDVPVEMLGGKE” the “soluble fraction (log2)” value was 0.054.
In the case of “HMEPTIGTATVTSGSRLNMRSAKSTSASVVTRIPSGATVGVISYASDWSKVTYNGYTGYVSSPYISMNG”, the “soluble fraction (log2)” value is reported as -0.108.
For “HMEPVIELGDRTLPIEITRHRRARRLTLRLAADGSAVRITLPHWARSAEATAFAHARRDWLAAQLAK”, the “soluble fraction (log2)” value was 0.108.
With “HMEPVTETVYAMDTVNIRAAADQTSEKIGSVTVGTALTRTGTDGDWSIIDYNGTTGYVKSEFLSNTAPEV” the “soluble fraction (log2)” value was -0.22.
In the case of “HMEQLIIQEELSGKRLDQLVSLLFPSLTRAHAQKLIKEGAVLVNEKPRKPAYAVMTGELLTVELPEPE”, the “soluble fraction (log2)” value is reported as -0.755.
With “HMEQNHYEVLGVSRDAIPEEIRKAYFEYARKLHPDANPDPGAAEQFMRIQTAYDVLSNPDRRHEYDGLLPP” the “soluble fraction (log2)” value was -0.249.
With “HMEQRREEFILLAKELLEKELRKQNLEVHENLKPDVLNDVAKRLGMVSMDDLLAAVGDGKITPGTVVSKIV” the “soluble fraction (log2)” value was -0.389.
In the case of “HMEQVLNVAVRRGELIMSSAAEQTVRIYSSAGSMVWQGKVSASDVTVELPSGVYVVNGKKVV”, the “soluble fraction (log2)” value is reported as -0.513.
For “HMEQYFEDEELNDKFLEFLAMRKRVRKPVQTDRGMKMLLTSLHKLSGGDVGLMKQIIDQSLDNEWKKFVA”, the “soluble fraction (log2)” value was -1.12.
With “HMERDIATKHEVNRTVEAYSDIVKTLNLPSHKINLVEISFFNILKRSKPSPRENSILLGLAQKIKLHLEKK” the “soluble fraction (log2)” value was -0.473.
With “HMERLKYSQVVDLFKGEQVKSFVLDESNQLKMELQDGSTVSYKLRSFEQFYLDLSDTVKEQKESGIITDYD” the “soluble fraction (log2)” value was -1.72.
With “HMERPPHELLSDREYQTMVMIASGRTLTQIAEEMSLSPKTVSVYRARLLEKMKLKNNAELTHYALKHKLV” the “soluble fraction (log2)” value was -0.2.
For “HMERPSLDQVLAHAKALGIAPARFVAYADGRWGTGWRLSPHGRARAWEELDRHRNDPLGYRDKLDVALQSG”, the “soluble fraction (log2)” value was 0.181.
For “HMESAQLIINVAGKVSNPGVYQLPQGSRVVDAIEAAGKQLKGVDISDINLARVLVDGEQILVGGV”, the “soluble fraction (log2)” value was -1.35.
With “HMESAVDVFRSILKEKGVTEEEVRQVVAARGKYTLETPIDDYPNEFLYGYVIRYWDQIFDIIQQSREAK” the “soluble fraction (log2)” value was -1.57.
For “HMESEAKLGVAFNGKTRFDMTFPADADNKTIEEAVLADERAQKYLEGFQVAKVIIVPKRMVNIVLK”, the “soluble fraction (log2)” value was no less than 0.43.
With “HMESEIYKKIEKSRLLELAFTKSQKGDLTGAYDLYYQAFTKYDVIADNQNRYFEDFISLIRRKQQQD” the “soluble fraction (log2)” value was -0.822.
With “HMESGLPLPRFVSLGADEVNLRTGPGLRYPVAWVFVRKALPVEIVAEFEQWRRVRDFEGAEGWVHKAML” the “soluble fraction (log2)” value was -0.527.
For “HMESGSSKINQDILETFTRGKKSLSISDISRLSGHHRHTVARYLDNLVSSGKLEMRQHGQKKKYYLSDIQP”, the “soluble fraction (log2)” value was 0.0709.
In the case of “HMESILDDFPGLGAVRRAALLEHFGDIDRLRAASAVEITEVDGFGDVLARELHDFLHRPKPDA”, the “soluble fraction (log2)” value is reported as -0.768.
In the case of “HMESKKKTYTVKSGDTLVSILKREGVPQELIFKDYLGLFLELNPQISDINKLRVGQEIVLPVPG”, the “soluble fraction (log2)” value is reported as 0.3.
In the case of “HMESLGEKIKNIRISNNLKQSELADILHISEKTISSWENNRTTPDLNMIYKISNYFKKSFYYLISDDYI”, the “soluble fraction (log2)” value is reported as -0.283.
With “HMESMIGSLRGRLLELFGDGEVLIEVGGVGYRVIVTPTTTVRLGDVGGDVFVHVHHHIREADQTLYGF” the “soluble fraction (log2)” value was -0.722.
For “HMESPSGGHRIALAFDQGTARAVDATYARLTGAGYEGRTKPWDAPWGQRYATVFDPDGNSVDLFAALE”, the “soluble fraction (log2)” value was -0.544.
For “HMESRDRVRQASAAGYRFMSTMAGHEPGFEEASRALFAGDQTAFEARITAWPVDVQTHLKKILAEAFTT”, the “soluble fraction (log2)” value was -0.939.
For “HMESRLQAAIALRKAGEHEQSREALKILADEPALRAQALLNIAWSFDNQGHERDAEGYYLAAIE”, the “soluble fraction (log2)” value was 0.127.
With “HMESSKLQASIINYLERRPTQKFTAEELFKGLSLEKASVFNELVKELTSLERSHKVEITADDKFKIARPQ” the “soluble fraction (log2)” value was 0.0446.
With “HMESSSQLGFELARLVESGNDEEARALVQAKELSEADERKWLYHLGNLLHAAGRPLQASAIWREVGT” the “soluble fraction (log2)” value was -0.436.
In the case of “HMESVQWSVFPSAKYVTIISFDPTTSGGSATAKFKVSDEARSKGFRFRIEAAIGEGIMRSEMYVIEE”, the “soluble fraction (log2)” value is reported as -0.0704.
In the case of “HMESWNRARILEKIRELHAQGVALNNASMRRLGYRGMMEAAARPQNFGSWEAAVRAAGIDYDRV”, the “soluble fraction (log2)” value is reported as 0.22.
For “HMETAVMPDVMKLDSTTAIQALKDKGFATIETYEVKSDRPAGVVVRQSETADSVVALSKEILLGVSNGADY”, the “soluble fraction (log2)” value was -0.00473.
In the case of “HMETGFADTLRKFRKEADMTQEKLAEALGVTTGAVYKWENGRSTPEVRLLVEMADLFGTSVDALLDYKVR”, the “soluble fraction (log2)” value is reported as -0.723.
For “HMETGKLIKELRLKKGMTQEELADKTEVSSRTIQRIENGEVDPRAYTLQMIARALEVDYSLFME”, the “soluble fraction (log2)” value was -0.683.
In the case of “HMETIELSAPGGVRLDKLIADGTELSRSAAVKLIEQGNVLVNGSPAGKKDIPAAGAAVEITLPEPQ”, the “soluble fraction (log2)” value is reported as -0.255.
For “HMETIGENIKTYRQKKGYTQEEVANRLHVTRQTISKWEKNYSIPDAEVLVKLADVLEVQTSQLLGV”, the “soluble fraction (log2)” value was no less than 0.43.
With “HMETIGKRVRAARQELGLTMKQLHEQTGLSTGNISDIENDRNTPSVSSLVALGRALRRSLDWLLTGEE” the “soluble fraction (log2)” value was -0.555.
For “HMETISEIWRLIDGLDEIYRVPLTMYYRSNRSVREIAETLGLSARTVETRIYRARRMIREKWSN”, the “soluble fraction (log2)” value was -0.679.
In the case of “HMETITDRLNRRSLELNVSQADIIRTTGAGRGTVSGWFSGANAPSAKYLESLAVALKTSTTWLLSGKD”, the “soluble fraction (log2)” value is reported as 0.0972.
In the case of “HMETKERDEQFLEMIRQNEGIIFKVASFYVDKEHPIGDLYQEVVLNLWKGYPSFRGESKYSTWIYRIALNT”, the “soluble fraction (log2)” value is reported as -0.504.
For “HMETKPTELMLEVHELRIGMFVHLDLGWMDHPFPLNRFKISTNSQIEQIKGLRLKQVKVMTALSDPTALS”, the “soluble fraction (log2)” value was -1.25.
For “HMETKQYIVEAQDEGTRLDVYLTKELGQSRSYVQSLVKEGHVQVNGKTGKSNLKLSSSSEILVTIPEVQ”, the “soluble fraction (log2)” value was 0.0538.
In the case of “HMETLKINTHLGTLNLKKRGKKGTWQINIYFKNIEGDNHYRQSTGTNQLELAKAKAMNMITTEYSNRLAGI”, the “soluble fraction (log2)” value is reported as -0.259.
With “HMETMSYAEFNAIRIGKAKLMLADPSLKIWEISEAVGYTDTAHFARTFKKLEGMSANEYRNSL” the “soluble fraction (log2)” value was -0.713.
For “HMETNFTGTRIATARKAKNMSQAQLAQQLFISPQAVGKWERGESIPDIVTVVKLADVLGVDLNYFSE”, the “soluble fraction (log2)” value was -0.403.
With “HMETPQIVARGDLITMVFRSGSLVLTAKGKALENGAMGDTIRVVNSDSNKTLAARVSASREVTVSE” the “soluble fraction (log2)” value was -0.146.
For “HMETPSNTAGITHATSDGYIFKGESDIIGRNSFGFIVKHGSHNHIIPFDSLRGTKWEYLINKYT”, the “soluble fraction (log2)” value was -0.03.
For “HMETSVDEVYKKIQAYIEAEDKHKPLSDQKLAEQLQSDGLKVSRRTVAKYREKLNIASSSKRKR”, the “soluble fraction (log2)” value was 0.379.
In the case of “HMETTVPNVLNHNISTGEILLKENNLNFRIQYIPSNKDEAVGTIINSVPTSGEKVKFGTVVDLKVL”, the “soluble fraction (log2)” value is reported as -0.0719.
With “HMETVRHFRLDWSQAADRLDKVLASLMNDVSRARIQEWIRLGAVSVNGEILTDVRAKVAGGDAIDVTPQTA” the “soluble fraction (log2)” value was -0.0931.
With “HMETVRLSVDAQGAYYWNEQRVDDSALPDLLREASGRKPQPDLHIRGDKAVRYERVAEAMAAAQRAGLKKI” the “soluble fraction (log2)” value was -0.178.
For “HMETVVTEVKTTDVVNIRTSDSETADKLSKAAIGDTFPLLEERGNGWSKVAYNGEEAFIKSDYLEPSKTE”, the “soluble fraction (log2)” value was -0.654.
In the case of “HMETYEFNITDKEQTGMRVDKLLPELNSDWSRNQIQDWIKAGLVVANDKVVKSNYKVKLNDHIVVTEKEV”, the “soluble fraction (log2)” value is reported as -0.2.
With “HMETYPINVETTGTNVLLRTGPSTSSNIIKTITDKGTVFLSIERGINSDWQKVVTPDGTIGYMSGKY” the “soluble fraction (log2)” value was -0.314.
For “HMEVAVQFIEFKIPENHAWIGKEIREITFPPESILVLIIRDGKKLVPNGKTVLKEGDSLILSGKASD”, the “soluble fraction (log2)” value was -1.61.
With “HMEVDDEAIYQGHEPSIRLHRLLKDVGYNSALLPSVVTQIFKDFPGIELAKALPIAMQLLNED” the “soluble fraction (log2)” value was -1.47.
For “HMEVFGDTKEEQMIIDILKLGITDLEHLQAKSMLEPAIFSQTLTMLEISGKIRPLGAGHWTL”, the “soluble fraction (log2)” value was -1.49.
For “HMEVFTPSEANVAEAREILAAMATAKANGEGATVYKGRLVDIASIKQAEVIVRQSEMIQSAH”, the “soluble fraction (log2)” value was -0.151.
For “HMEVIDQLFKIALTLFDIDKGENNSISQDLVDKVIEQMKTTAPTFIKRELSEDEVKKLRFEIQNHFNV”, the “soluble fraction (log2)” value was -0.411.
With “HMEVKSGFVHLTGAVKSPGVYPISIGMRLFEVIALAGGFTAKADRESVNLARTVTDGEQIIVSGSG” the “soluble fraction (log2)” value was -0.778.
